Assay results reported in the supplement of paper PMC11246515.
± gives the standard deviation of the averaged measurements.

Assay: total protein half-life in vivo (active degradation + dilution); higher = more stable protein
[1] = E. coli NCM3722 delta-clpP delta-lon delta-hslV, growth: N-lim chemostat, doubling time 6 h
[2] = wild type E. coli NCM3722, growth: C-lim chemostat, doubling time 3 h
[3] = wild type E. coli NCM3722, growth: C-lim chemostat, doubling time 6 h
[4] = wild type E. coli NCM3722, growth: C-lim chemostat, doubling time 12 h
[5] = E. coli NCM3722 delta-clpP, growth: N-lim chemostat, doubling time 6 h
[6] = E. coli NCM3722 delta-hslV, growth: N-lim chemostat, doubling time 6 h
[7] = E. coli NCM3722 delta-lon, growth: N-lim chemostat, doubling time 6 h
[8] = E. coli NCM3722 delta-smpB, growth: N-lim chemostat, doubling time 6 h
[9] = wild type E. coli NCM3722, growth: N-lim chemostat, doubling time 6 h
[10] = wild type E. coli NCM3722, growth: N-lim chemostat, doubling time 12 h
[11] = wild type E. coli NCM3722, growth: P-lim chemostat, doubling time 6 h
[12] = wild type E. coli NCM3722, growth: P-lim chemostat, doubling time 12 h

Row | Sequence | total protein half-life in vivo [1] [h] | total protein half-life in vivo [2] [h] | total protein half-life in vivo [3] [h] | total protein half-life in vivo [4] [h] | total protein half-life in vivo [5] [h] | total protein half-life in vivo [6] [h] | total protein half-life in vivo [7] [h] | total protein half-life in vivo [8] [h] | total protein half-life in vivo [9] [h] | total protein half-life in vivo [10] [h] | total protein half-life in vivo [11] [h] | total protein half-life in vivo [12] [h]
1 | MKLRSVTYALFIAGLAAFSTSSLAAQSLRFGYETSQTDSQHIAAKKFNDLLQERTKGELKLKLFPDSTLGNAQAMISGVRGGTIDMEMSGSNNFAGLSPVMNLLDVPFLFRDTAHAHKTLDGKVGDDLKASLEGKGLKVLAYWENGWRDVTNSRAPVKTPADLKGLKIRTNNSPMNIAAFKVFGANPIPMPFAEVYTGLETRTIDAQEHPINVVWSAKFFEVQKFLSLTHHAYSPLLVVINKAKFDGLSPEFQQALVSSAQEAGNYQRKLVAEDQQKIIDGMKEAGVEVITDLDRKAFSDALGNQVRDMFVKDVPQGADLLKAVDEVQ | 4.65 | 3.23 ± 0.18 | 6.69 ± 0.32 | 9.23 ± 0.3 | – | – | – | – | – | – | – | –
2 | MKLQQLRYIVEVVNHNLNVSSTAEGLYTSQPGISKQVRMLEDELGIQIFSRSGKHLTQVTPAGQEIIRIAREVLSKVDAIKSVAGEHTWPDKGSLYIATTHTQARYALPNVIKGFIERYPRVSLHMHQGSPTQIADAVSKGNADFAIATEALHLYEDLVMLPCYHWNRAIVVTPDHPLAGKKAITIEELAQYPLVTYTFGFTGRSELDTAFNRAGLTPRIVFTATDADVIKTYVRLGLGVGVIASMAVDPVADPDLVRVDAHDIFSHSTTKIGFRRSTFLRSYMYDFIQRFAPHLTRDVVDAAVALRSNEEIEVMFKDIKLPEK [P0A9F3] | 7.08 ± 0.39 | 2.98 ± 0.23 | 5.63 ± 0.12 | 10 ± 1.2 | 4.65 ± 0.091 | 5.88 ± 0.65 | 5.93 ± 0.08 | 4.96 ± 0.18 | 5.41 ± 0.36 | 11 ± 0.51 | 4.01 ± 0.32 | 7.28 ± 0.33
3 | MSVIIVGGGMAGATLALAISRLSHGALPVHLIEATAPESHAHPGFDGRAIALAAGTCQQLARIGVWQSLADCATAITTVHVSDRGHAGFVTLAAEDYQLAALGQVVELHNVGQRLFALLRKAPGVTLHCPDRVANVARTQSHVEVTLESGETLTGRVLVAADGTHSALATACGVDWQQEPYEQLAVIANVATSVAHEGRAFERFTQHGPLAMLPMSDGRCSLVWCHPLERREEVLSWSDEKFCRELQSAFGWRLGKITHAGKRSAYPLALTHAARSITHRTVLVGNAAQTLHPIAGQGFNLGMRDVMSLAETLTQAQERGEDMGDYGVLCRYQQRRQSDREATIGVTDSLVHLFANRWAPLVVGRNIGLMTMELFTPARDVLAQRTLGWVAR | 5.61 ± 0.23 | 2.72 ± 0.17 | 4.42 ± 0.18 | 6.83 ± 0.21 | 4.77 ± 0.24 | 6.05 ± 2.4 | 3.69 ± 0.053 | 4.23 ± 0.17 | 4.24 ± 1.1 | 9.5 | 2.82 ± 0.096 | 4.59 ± 0.42
4 | MKKIDAIIKPFKLDDVREALAEVGITGMTVTEVKGFGRQKGHTELYRGAEYMVDFLPKVKIEIVVPDDIVDTCVDTIIRTAQTGKIGDGKIFVFDVARVIRIRTGEEDDAAI [P0A9Z1] | 5.76 ± 0.58 | 3.3 ± 0.45 | 5.57 ± 0.17 | 10.5 ± 1.1 | 5.59 ± 1.1 | 5.06 ± 0.23 | 5.35 ± 0.13 | 4.77 ± 0.36 | 4.68 ± 0.49 | 8.91 ± 0.19 | 5.77 ± 0.31 | 11.6 ± 0.54
5 | MKKISLPKIGIRPVIDGRRMGVRESLEEQTMNMAKATAALLTEKLRHACGAAVECVISDTCIAGMAEAAACEEKFSSQNVGLTITVTPCWCYGSETIDMDPTRPKAIWGFNGTERPGAVYLAAALAAHSQKGIPAFSIYGHDVQDADDTSIPADVEEKLLRFARAGLAVASMKGKSYLSLGGVSMGIAGSIVDHNFFESWLGMKVQAVDMTELRRRIDQKIYDEAELEMALAWADKNFRYGEDENNKQYQRNAEQSRAVLRESLLMAMCIRDMMQGNSKLADIGRVEESLGYNAIAAGFQGQRHWTDQYPNGDTAEAILNSSFDWNGVREPFVVATENDSLNGVAMLMGHQLTGTAQVFADVRTYWSPEAIERVTGHKLDGLAEHGIIHLINSGSAALDGSCKQRDSEGNPTMKPHWEISQQEADACLAATEWCPAIHEYFRGGGYSSRFLTEGGVPFTMTRVNIIKGLGPVLQIAEGWSVELPKDVHDILNKRTNSTWPTTWFAPRLTGKGPFTDVYSVMANWGANHGVLTIGHVGADFITLASMLRIPVCMHNVEETKVYRPSAWAAHGMDIEGQDYRACQNYGPLYKR | 4.26 ± 0.39 | 3.42 ± 0.12 | 5.12 ± 0.1 | 9.64 ± 0.84 | 4.38 | – | 3.06 | 3.21 | 2.78 ± 0.2 | – | 5.22 ± 0.62 | 10.9 ± 1.1
6 | MSFNTIIDWNSCTAEQQRQLLMRPAISASESITRTVNDILDNVKARGDEALREYSAKFDKTTVTALKVSAEEIAAASERLSDELKQAMAVAVKNIETFHTAQKLPPVDVETQPGVRCQQVTRPVASVGLYIPGGSAPLFSTVLMLATPASIAGCKKVVLCSPPPIADEILYAAQLCGVQDVFNVGGAQAIAALAFGTESVPKVDKIFGPGNAFVTEAKRQVSQRLDGAAIDMPAGPSEVLVIADSGATPDFVASDLLSQAEHGPDSQVILLTPAADMARRVAEAVERQLAELPRAETARQALNASRLIVTKDLAQCVEISNQYGPEHLIIQTRNARELVDSITSAGSVFLGDWSPESAGDYASGTNHVLPTYGYTATCSSLGLADFQKRMTVQELSKEGFSALASTIETLAAAERLTAHKNAVTLRVNALKEQA | 4.6 ± 0.29 | 3.3 ± 0.18 | 5.97 ± 0.23 | 10.8 ± 1.1 | 4.43 ± 0.94 | 3.96 ± 0.073 | 4.89 ± 0.47 | 4.3 ± 0.25 | 4.23 ± 0.25 | 6.67 ± 0.38 | 5.595 ± 0.053 | 11.9 ± 0.35
7 | MAKEDNIEMQGTVLETLPNTMFRVELENGHVVTAHISGKMRKNYIRILTGDKVTVELTPYDLSKGRIVFRSR | 5.28 ± 0.3 | – | 5.34 ± 0.62 | 8.41 ± 0.61 | 4.92 ± 1.1 | 4.49 ± 0.57 | 4.94 ± 0.23 | 5.4 ± 0.28 | 4.58 | 8.98 ± 0.12 | 4.93 ± 1.6 | 9.85 ± 0.75
8 | MLQIIRGKLVIFLITLCLFVVYLGFDNNSNSDIVFYGHKTPKSVEIYLSEKNIIYKIINDQKISRGNGHFISIMVNNYRTHCGVVDINLNFFNDILYSVRLKNISKLENMEFCATKQRVYFSDKNKKASYKIINYGDYYDVDYYDNNLKNEVFDWIGKWS | – | 2.67 | 4.29 | – | – | – | – | – | – | – | 2.67 | 7
9 | MLDKLDAALRFQQEALNLRAQRQEVLAANIANADTPGYQARDIDFASELKKVMQRGRDATSVVALTMTSTQHIPAQALTPPTAELQYRIPDQPSLDGNTVDMDRERTQFADNSLQYQMSLSALSGQIKGMMNVLQSGN [P0ABW9] | – | 1.32 | – | – | – | – | – | – | – | – | – | –
